From the nanobody polyreactivity screen of Harvey et al. (2022)

Assay: yeast display, Sf9 membrane polyspecificity reagent, FACS + sequencing; frameworks hold sequencing errors
How it was run: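 Nanobodies came from a synthetic yeast display library in Saccharomyces cerevisiae BJ5465, induced with galactose for 36–48 hours and stained for 1 hour at 4 °C with 10% biotinylated, detergent-solubilized Sf9 membrane reagent. Cells were enriched on streptavidin microbeads and then FACS-sorted, with low and high (top ~1%) gates set on anti-HA fluorescence for expression and streptavidin fluorescence for reagent binding. Each polyreactivity label reflects the gate a clone came from. Genes were amplified by colony PCR, sequenced by MiSeq 2 × 250 and filtered by CDR length.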

Row | Sequence | polyreactivity (PSR sort gate)
1 | QVQLVESGGGLVQAGGSLRLSCAASGSIFRHNAMGWYRQAPGKERELVAAITSRGGSTYYADSVKGRFTISRDNAKNTVYLQMNSLKPEDTAVYYFAADYSSLSWGYDYWGQGTQVTVSS | high polyreactivity
2 | QVQLVESGGGLVQAGGSLRLSCAASGSIFRHYAMGWYSQAPGKERELVASITLRGGSTYYADSVKGPFTISRDNAKNTVYLQMNSLKPEDTAVYYCAKRAGPEYDYWGQGTQVTVSS | low polyreactivity
3 | QVQLVESGGGLVQAGGSLRLSCAASGSIFRHYTMGWYRQAPGIERELVAVISSGGNTNYADSVKGRFTISRDNAKNTVYLQMNSLKPEDTAVDDCAARSHRYYSRVNYWGQGTQVTVSS | high polyreactivity
4 | QVQLVESGGGLVQAGGSLRLSCAASGSIFRINAMGWYRQAPGKEREFVAAIRGSGGRTYYADSVKGRFTISRDNAKNTVYLQMNSLKPEDTAVYYCAADFSYRYFQRTSWPFDYWGQGTQVTVSS | high polyreactivity
5 | QVQLVESGGGLVQAGGSLRLSCAASGSIFRINAMGWYRQAPGKERELVAAISTSGGTTYYADSVKGRFTISRDNAKNTVYLQMNSLKPEDTAVYYCAARRVTSPFGSDSWGQGTQVTVSS | low polyreactivity
6 | QVQLVESGGGLVQAGGSLRLSCAASGSIFRIYAMGWYRQAPGKERELVAAISTSGVRTYYADSVKGRFTISRDNAKNTVYLQMNSLKPEDTAVYYCNARYVRPRGTGDFDYWGQGTQVTVSS | high polyreactivity
7 | QVQLVESGGGLVQAGGSLRLSCAASGSIFRIYAMGWYRQAPGKERELVAAITKRGGSTYYADSVKGRFTISRDNAKNTVYLQMNSLKPEDTAVYYCAARFYSGYSYDYWGHGTQVTVSS | high polyreactivity
8 | QVQLVESGGGLVQAGGSLRLSCAASGSIFRKKAMGWYRQAPGKERELVAAITGTGRTTYADSVKGRFTISRDNAKNTVYLQMNSLKPEDTAVYYCAAEYYYRYSYTNEGDYWGQGTQVTVSS | low polyreactivity
9 | QVQLVESGGGLVQAGGSLRLSCAASGSIFRKNAMGWSRPAPGKERELVAVSTSSGASTYYADSVKGRFTISRDNAKNTVYVQMNSLKPEETAVYYCNAPSFYTKKMYSWGQGTQVTVSS | high polyreactivity
10 | QVQLVESGGGLVQAGGSLRLSCAASGSIFRKNAMGWYRQAPGKERELVAAISSGGGGTYYADSVKGRFTISRDNAKNTVYLQMNSLKPEDTAVYYCNKREGKGGNTKYDYWGLGTQVTVSS | low polyreactivity
11 | QVQLVESGGGLVQAGGSLRLSCAASGSIFRKNAMGWYRQAPGKERELVATISGGGSTTYADSVKGRFTISRDNAKNTVYLQMNSLKPEDTAVYYCAARSTWFQIRYGYWGQGTQVTVSS | high polyreactivity
12 | QVQLVESGGGLVQAGGSLRLSCAASGSIFRKYAMGWYRQATGKERELVAVITTDGSTNYADSVKGRFTISRDNAKNTVYLQMNSLKPEDTAVYYCNAVRSSIGTDNDYWGQGTQVTVSS | low polyreactivity
13 | QVQLVESGGGLVQAGGSLRLSCAASGSIFRLYAKGSYRQAPGKERELVARITTGGSTNYADSVKGRFTISRDNANNTVYLQMNSLKPEDTAVYYSWGVPRRYYYWGQGTQVTVSS | high polyreactivity
14 | QVQLVESGGGLVQAGGSLRLSCAASGSIFRLYAKGWYIQAPGKERELVAAISSGGSTYYADSVKGRFTISRDNAKNTVYLQMNSLKPEDTAVYYCNTAWTYWRYDYWGQGTQVTVSS | high polyreactivity
15 | QVQLVESGGGLVQAGGSLRLSCAASGSIFRLYVMGWYRQAPGKERELVAAITLSGGSTYYADSVKGRFTISRDNAENTVYLQMNSLKPEDTAVYYCNRVTLYDITFDYWGQGTQVTVSS | low polyreactivity
16 | QVQLVESGGGLVQAGGSLRLSCAASGSIFRNNTMGWYRQAPGKERELVAAISGRGTRTSYADSVKGRFTISRDNAKNTVYLQMNSLKPEDTAVYYCAAVYYWRPGWYVRFDYWGQGTQVTVSS | low polyreactivity
17 | QVQLVESGGGLVQAGGSLRLSCAASGSIFRNYAMGWYRQAPGKERELVAAISRSGSSTFYADSVKGRFTISRDNAKNTVYLQMNSLKPEDTAVYYCAAVDYYTLTGYRYYWGQGTQVTVSS | high polyreactivity
18 | QVQLVESGGGLVQAGGSLRLSCAASGSIFRNYAMGWYRQAPGKERELVASIRYSGGRTNYADSVKGRFTISRDNAKNTVYLQMNSLKPEDTAVYYCAADPGYGWQRAYYYWGQGTQVTVSS | high polyreactivity
19 | QVQLVESGGGLVQAGGSLRLSCAASGSIFRPNAMGWNRQAPGKERELVAAINTSDDSTYYADSVKGRFTISRDNAKNTVYLQMNSLKPEDSAVYYCAADPRTYWTHSYYWGQGTQVTVSS | low polyreactivity
20 | QVQLVESGGGLVQAGGSLRLSCAASGSIFRPNAMRWYRQAPGKERELVAAISSGDSTNYADSVKGRFTISRDNAKNTVYLLMNSLKAEDTAVYYCNTDKYSESYRSYEYWGQGTQVTVSS | low polyreactivity
21 | QVQLVESGGGLVQAGGSLRLSCAASGSIFRPNTMGWYRQATGKERELVADIRYRGGGTYYADSVKGRFTITRDNATNTVYLQMNSLKPEDTAVYYCAKASAQWVQFDFWGQGNQVTVSS | high polyreactivity
22 | QVQLVESGGGLVQAGGSLRLSCAASGSIFRPYAMGWYRQAPGKERELVAGITFIGGSTYYADSVKGRFTISRDNAKNTVYLQRNSLKPEDTAVYYCNADVAPGIFYGYDSWGQGTQVTVSS | low polyreactivity

Row | Sequence | polyreactivity (PSR sort gate)
23 | QVQLVESGGGLVQAGGSLRLSCAASGSIFRPYAMGWYRQAPGKERVLVAAISRRGGSTYYADSVKGRFTISRDNAKNTVYLQMNSLKPEDTAVYYCAADHSRPSPYGYGYWGQGTQVTVSS | high polyreactivity
24 | QVQLVESGGGLVQAGGSLRLSCAASGSIFRRNAMGWYRQAPGKERELVAAISSIGSSTYYADSVKGRFTISRDNAKNTVYLQMNSLKPEDTAVYYCAALYVQGTHTYGYWGQGTQVTVSS | high polyreactivity
25 | QVQLVESGGGLVQAGGSLRLSCAASGSIFRRNAMGWYRQAPGKERELVAAITWRGDRTYYADSVKGRFTISRDNAKNTVYLQMNSLKPEDTAVYYCNKLGRIQYDYWGQGTQVTVSS | high polyreactivity
26 | QVQLVESGGGLVQAGGSLRLSCAASGSIFRRYAMGWYRQAPGKEREFVAAITRSGGGTYYADSVKGRFTISRDNAKNTVYLQMNSLKPEDTAVYYCAADAPNFGLYRDKDYDYWGQGTQVTVSS | high polyreactivity
27 | QVQLVESGGGLVQAGGSLRLSCAASGSIFRRYAMGWYRQAPGKERELVAAISRSGSSTYADSVKGRFTISRDNEKNTVYLQMNSLKPEDTEVYYCNRVRLNTEGFDYWGQGTQVTVSS | low polyreactivity
28 | QVQLVESGGGLVQAGGSLRLSCAASGSIFRRYDMGWYRQAPGTERELVAAISSSGGSTYYADSVKGRFTISRDNAKNTVYLQMNILKPEDTAVYYCNTASNRYPGWRAEFDYWGQGTQVTVSS | low polyreactivity
29 | QVQLVESGGGLVQAGGSLRLSCAASGSIFRSNAMGWYRPAPGKERELVAAISRRGGSTYYADSVKGRFTISRDNAKNPVYLQMNSLKPEDTAVYYCAAPTIVSGHDSWGQGTQVTVSS | high polyreactivity
30 | QVQLVESGGGLVQAGGSLRLSCAASGSIFRSNAMGWYRQAPGKERELVAAITSGTRKYYADSVKGRFTISRDNAKNTVYLQMNSLKPEDTAVYYCATKGSKYDRGYWGQGTQVTVSS | high polyreactivity
31 | QVQLVESGGGLVQAGGSLRLSCAASGSIFRSNAMGWYRQPPGKERELVAAITLSGGSTYYADSVKVRFTISRDNAKNTVYLQMNSLKPEDTAVYYCAAAYYLFSIHDYWGQGNQVTVSS | low polyreactivity
32 | QVQLVESGGGLVQAGGSLRLSCAASGSIFRSNTMGWSRQAPGKERELVARISSTGGSTYYADSVKGRFTISRDNAKKTVYLQLNSLKPEDTAVYYCNKVRGINHLYDMNYWGQGTQVTVSS | high polyreactivity
33 | QVQLVESGGGLVQAGGSLRLSCAASGSIFRSYALGWYRQSPGKERELVASISRRGGSTYYADSVKGRFTISRDNAKNTVYLQMNSLKPEDTAVYYCAAVRYNSRVSTTPSEMYYWGQGTQVTVSS | low polyreactivity
34 | QVQLVESGGGLVQAGGSLRLSCAASGSIFRSYAMGWYRQAPGKERELVAAISRRGSSTYYADSVKGRFTISRDNAKNTVYLQMNSLKPEDTAVYYCNRVRYPRVDYWGQGTQVTVSS | high polyreactivity
35 | QVQLVESGGGLVQAGGSLRLSCAASGSIFRSYAMGWYRQAPGKERELVASITRSSGSTYYADSVKGRFTISRDNAKNTVYLQMNSLKPEDTAVYYCNAVVSKSRRFRVDYWGQGTQVTVSS | high polyreactivity
36 | QVQLVESGGGLVQAGGSLRLSCAASGSIFRSYAMGWYRQSPGKERELVASISRRGGSTYYADSVKGRFTISRDNAKNTVYLQMNSLKPEDTAVYYCAAVRYNSRVSTTPSDMYYWGQGTQVTVSS | low polyreactivity
37 | QVQLVESGGGLVQAGGSLRLSCAASGSIFRTYAKGWYRQAPGKERELVATITFGGVSTYYADSVKGRFTISRDNAKNTVYLQMNSLKPEDTAVYYCAADVYTRFWRVYRFDYWGQGTQVTVSS | low polyreactivity
38 | QVQLVESGGGLVQAGGSLRLSCAASGSIFRTYAMGWYRQAPGKERELVATITFGGVSTYYADSVKGRFTISRDNAKITVYLQMNSLKPEDTAVYYCAADVYTRFWRVYRFDYWGQGTQVTVSS | low polyreactivity
39 | QVQLVESGGGLVQAGGSLRLSCAASGSIFRTYAMGWYRQAPGKERELVATITFGGVSTYYADSVKGRFTISRDNAKTTVYVQKTSLKPEDTAVYYCAAEVYTRFWRVYRFDYWGQGTQVTVSS | low polyreactivity
40 | QVQLVESGGGLVQAGGSLRLSCAASGSIFRVYAMGWYRQAPGKERELVAAISTRGGSTYYADSVKGRFTISRDNAKNTVYLQMNSLNPEDTAVYYCAKRWPQYPDYKPMYYWGQGTQVTVSS | high polyreactivity
41 | QVQLVESGGGLVQAGGSLRLSCAASGSIFRVYAMGWYRQAPGKERELVAGISSRGGTSTYYADSVKGRFTISRDNAKNTVYLQMNSLKPEDTAVYYCAVQVRYPGYDYWGQGTQVTVSS | low polyreactivity
42 | QVQLVESGGGLVQAGGSLRLSCAASGSIFRVYVMGWYRQAPGKERELVARIRYRSGRTNYADSVKGRFTISRDNAKNTVYLQMNSLKPEDTAVYYCSADVYWPTAGDYTQKRDYWGLGTQVTVSS | high polyreactivity
43 | QVQLVESGGGLVQAGGSLRLSCAASGSIFRWNAMGSYRQAPGKERELVAVINSSGGSTYYADSVKGRFTISRDNAKNTVYLQMNSLKPEDTAVYYCAAVIYKIIYGQYAYDYWGQGTQVTVSS | low polyreactivity
